In assay [1] the target is T1, soluble recombinant human IL-1RI (corresponding to the extracellular domain of IL-1RI) (human, UniProt P14778 18-336).
T1 construct: extracellular domain; also called interleukin-1 receptor I; immobilized soluble IL-1RI
T1 sequence (looked up): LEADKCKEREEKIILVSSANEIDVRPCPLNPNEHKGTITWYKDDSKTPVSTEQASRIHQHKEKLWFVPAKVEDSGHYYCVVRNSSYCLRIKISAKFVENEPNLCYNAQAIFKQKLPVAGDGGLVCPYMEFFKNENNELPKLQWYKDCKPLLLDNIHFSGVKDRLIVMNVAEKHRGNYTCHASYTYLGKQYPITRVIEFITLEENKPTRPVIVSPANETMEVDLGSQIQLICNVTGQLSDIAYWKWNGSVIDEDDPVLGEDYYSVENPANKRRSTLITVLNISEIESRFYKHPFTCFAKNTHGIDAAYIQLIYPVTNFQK
Briefly: SPR (Reichert SR7000DC), soluble human IL-1RI; end of range tied to P04 by Table 7. The method, then:
(§1) The binding properties of proteins for soluble recombinant human IL-1RI (corresponding to the extracellular domain of IL-1RI) were evaluated using surface plasmon resonance with a Reichert SR7000DC Dual Channel SPR system. Binding was evaluated in phosphate buffered saline with 0.005% Tween 20. […] Thus, the P01 protein bound to IL-1RI with a greater affinity than did IL-1β under similar conditions.
(§2) See for example FIGS. 9C and 9D and Table 7 below.

Assay [2] addresses T2, IL-1RI on HEK-Blue IL-1β responsive cells (UniProt P14778 18-569).
T2 sequence (looked up): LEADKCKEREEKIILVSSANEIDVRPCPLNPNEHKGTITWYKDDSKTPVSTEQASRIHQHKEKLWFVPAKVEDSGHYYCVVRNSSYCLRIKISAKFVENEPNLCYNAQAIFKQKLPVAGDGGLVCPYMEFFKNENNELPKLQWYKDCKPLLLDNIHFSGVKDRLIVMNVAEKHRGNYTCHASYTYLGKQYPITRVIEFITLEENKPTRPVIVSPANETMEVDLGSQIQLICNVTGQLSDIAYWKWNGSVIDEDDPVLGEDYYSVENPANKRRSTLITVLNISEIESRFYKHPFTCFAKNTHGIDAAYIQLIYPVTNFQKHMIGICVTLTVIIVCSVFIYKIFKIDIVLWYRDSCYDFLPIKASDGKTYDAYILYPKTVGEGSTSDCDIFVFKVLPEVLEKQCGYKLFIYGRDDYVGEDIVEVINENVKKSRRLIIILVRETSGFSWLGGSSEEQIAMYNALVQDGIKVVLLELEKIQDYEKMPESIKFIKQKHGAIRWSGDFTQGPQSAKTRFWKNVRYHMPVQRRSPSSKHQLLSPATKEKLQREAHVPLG
Briefly: cell-based or functional assay.

Assay [3] deals with T1, soluble recombinant human IL-1RI …. Kind of assay: SPR (Reichert SR7000DC), soluble human IL-1RI; end of range tied to P03 (highest Kd) by Table 7. The method, then: as §1, §2
The target is the same in assay [4]. Briefly: SPR (Reichert SR7000DC), soluble human IL-1RI; end of range tied to P02 (lowest Kd) by Table 7. The method, then: as §1, §2

Where a chain is given by its changes, count along the chain named.

These results are taken from patent publication US20130209396A1 (ELEVEN BIOTHERAPEUTICS, published 2013).

By Kd is commonly meant the constant that tells how readily two partners part at equilibrium. What is called kon is a measure of how fast the partners come together. The koff is the rate constant with which the complex falls apart.

B1: P04 (designed binder)
chain: APVRSLAFRIWDVNQKTFYLRNNQLVAGYLQGPNVNLEEKFSMSFVQGEESNDKIPVALGLKEKNLYLSCVLKDDKPTLQLESVDPKNYPKKKMEKRFVFNKIEINNKLEFESAACPGWFLCTAMEADQPVSLTNMPDEGVMVTKFTMQFVSS
notes: Chimeric IL-1β/IL-1Ra cytokine domain expressed in E. coli; Both hexa-histidine tagged and untagged forms were made; also called P04 domain
In the case of B1, in assay [1], the Kd was determined as 1.7 nM and the kon was 30000 M⁻¹ s⁻¹.

B2: P05 (designed binder)
chain: B1 chain with A7N, F8C, A115Q, C116F, G118N, T147Y
Turning to B2, the “IC50 of antagonism of IL-1β activity, SEAP reporter in HEK-Blue IL-1β cells” value in assay [2] is below 5 ng/mL.

B3: P03 (designed binder)
chain: B1 chain with N101I, K102R, I103S, E104D, I105S, N106G, N107P, K108T, L109T, E110S
notes: Chimeric IL-1β/IL-1Ra cytokine domain expressed in E. coli; Both hexa-histidine tagged and untagged forms were made; also called P03 domain
Turning to B3, in assay [3], the koff was determined as 0.001 s⁻¹.

B4: P02 (designed binder)
chain: APVRSLAFRIWDVNQKTFYLRNNQLVAGYLQGPNVNLEEKIDVSFVQGEESNDKIPVALGIHGGKMCLSCVKSGDETRLQLEAVDPKNYPKKKMEKRFVFNKIEINNKLSFESAACPGWFLCTAMEADQPVSLTNMPDEGVMVTKFYMQFVSS
notes: Chimeric IL-1β/IL-1Ra cytokine domain expressed in E. coli; also called P02 domain
Turning to B4, the koff in assay [4] turned out to be 2e-05 s⁻¹.
